Like-named read-outs stand apart in the source and are kept apart here. Residues, ends and D or L forms follow the SMILES beside them.
Tests used:
human uPAR = target: T1, human uPAR (Homo sapiens, UniProt Q03405); assay: Ligand:uPAR interaction in vitro (binding affinity); conditions: binding affinity towards human uPAR
T1 construct: made in house
Description: In table 2, the amino acids sequences of each peptid conjugate with the corresponding binding affinity towards human uPAR are shown. Residues in bold is important for the interaction with uPAR. A substitution of two of these important amino acids (Phe^3 and Trp^8) with Glu, results in a complete loss of affinity towards uPAR. […] Importantly, no reduction in affinity is caused by conjugation of DOTA chelator in the N-terminal, illustrated with identical IC50-value between the un-conjugated peptide AE105 and the conjugated form DOTA-AE105.

[1] = Toxicity in HT-29 therapy study (body weight, kidney H&E, deaths); type: in vivo, NMRI nude mice
Description: Results are presented as the mean±SEM, n=6 animals/group. B, H&E staining of kidney sections representing kidney epithelia (top) and glomerulus (Bottom) from each treatment group. […] One pair of kidneys from one animal/group was stained. Scale bar=25 μm, 40× zoom.
Three days after tumor cell inoculation (study day 0), 18 nude mice bearing the human colorectal carcinoma xenograft HT-29 in each flank were randomly divided into three groups consisting of 6 animals each. All animals in each group were first baseline PET/CT scanned with ^18F-FLT (day 0) before being dosed with 20 MBq of either ^177Lu-DOTA-AE105, ^177Lu-DOTA-AE105mut or vehicle. Subsequently, PET/CT scans of all mice in each group were repeated with ^18F-FLT on study day 1, 3 and 6. Second treatment dose (20 MBq) was administrated on day 7, followed by CT-scan day 8, 10 and 14 to measure tumor volumes using manual ROI drawing on the reconstructed images. On day 14, all animals were euthanized and tumors and kidneys were collected and kept for further analysis at −80° C.
uPAR ELISA on resected HT-29 tumors was done as described previously in detail. All results were performed as duplicate measurements. Expression of uPAR in formalin fixed and paraffin embedded tumor tissue was evaluated by immunohistochemical staining (FIG. 7) as previously published. A general histopathology examination was performed on H&E stained kidney tissue (one pair of kidneys from one animal from each treatment group) and performed by a trained pathologist (ODL).

[2] = parameters: species or system NMRI nude mice; conditions: mouse, in vivo
Description: The organ uptake values, were time integrated to obtain the residence time per gram tissue for dosimetry calculations. Integration between time 0 and 24 hr was made by the trapezoid method. All time points were used to fit to a double exponential function (2-compartment model), which was used to estimate the residence time from 24 hr to infinity. The extrapolated area was in all organs/tissues <17% of the total calculated area, except kidneys (36.1%) and spleen (30.0%). The radioactive decay of ^177Lu produces mainly low energy […]. The S value for a 1 g sphere (0.0233 mGy/MBq s) was used to calculate the organ doses by multiplying it to the organ residence values as previously described. Based on the biodistribution data of ^177Lu-DOTA-AE105, estimates of the dosimetry were calculated (Table 1). […] However, the uPAR-positive fraction of the HT-29 tumor have previously been found only to be located in periphery of the tumor[25]. […] With this is mind and with the knowledge of the small penetration range of ^177Lu beta radiation (<2 mm), the present inventors calculated an estimate of local uPAR-positive tumor fraction dosimetry of approximate 58 mGy/MBq, thus resulting in the highest exposure for all organs/tissue investigated.

HT-29 tumor xenograft = assay: Biodistribution in Nude mice bearing HT-29 tumor xenograft (gamma-counter); type: in vivo, NMRI nude mice; conditions: mouse, in vivo
Procedure: (§1) Mice were sacrificed at 0.5, 1.0, 2.0, 4.0 and 24.0 h after injection, and a panel of organs, including blood drawn from the heart, was collected, weighed, and analyzed for radioactive content. Mean percent injected dose per gram (% ID/g)±SEM from three mice at each point is presented. A. Chemical structure of ^177Lu-DOTA-AE105. B(top) Biodistribution of ^177Lu-DOTA-AE105 in selected organs/tissues between 0.5 and 24.0 h. B (bottom). […] HT-29 colorectal cancer cells were obtained from the American Type Culture Collection (Manassas, VA, USA) and culture media was obtained from Invitrogen Co. (Carlsbad, CA, USA). The cell line was cultured in Mc.Coy's standard medium supplemented with 10% (v/v) fetal bovine serum and 1% (v/v) penicillin/Streptomycin at 37° C. and 5% CO2. Xenografts of human HT-29 colorectal cancer cells was established by injection of 200 μl cells (1×10^8 cells/ml) suspended in 100 μl Matrigel (BD Biosciences, San Jose, CA, USA), subcutaneously in the left and right flank of female NMRI nude mice obtained from Taconic, under anesthesia by Hypnorm/doricum (Study day −3). All animal experiments were performed under a protocol approved by the Animal Research Committee of the Danish Ministry of Justice. Biodistribution study was performed as previously described. In brief, Nude mice bearing HT-29 xenografts were injected in the tail-vein with 2-3 MBq of ^177Lu-DOTA-AE105 or ^177Lu-DOTA-AE105mut. All mice were euthanized after 0.5, 1, 2, 4 and 24 hr post tracer injection. Blood, tumor and major organs were collected (wet-weight) and the radioactivity was measured using a γ-counter from Perkin Elmer, MA, USA (N=4 mice/group).

[3] = as above; type: in vivo, NMRI nude mice; conditions: female, NMRI nude, mouse, iv, total radioactivity
Procedure: as §1

T1 sequence (Q03405 23-305): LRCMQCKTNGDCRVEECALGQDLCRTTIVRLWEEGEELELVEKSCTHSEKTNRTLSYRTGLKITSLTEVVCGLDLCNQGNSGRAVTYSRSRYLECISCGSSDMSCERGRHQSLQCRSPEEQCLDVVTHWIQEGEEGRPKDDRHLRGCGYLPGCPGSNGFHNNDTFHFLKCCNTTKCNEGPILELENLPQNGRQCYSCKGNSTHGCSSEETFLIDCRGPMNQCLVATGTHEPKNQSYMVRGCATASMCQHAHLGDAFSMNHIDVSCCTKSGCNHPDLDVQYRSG

CC(C)C[C@H](NC(=O)[C@H](Cc1ccc(O)cc1)NC(=O)[C@@H](CCCNC(=N)N)NC(=O)[C@@H](CO)NC(=O)[C@H](Cc1ccccc1)NC(=O)[C@H](CC1CCCCC1)NC(=O)[C@@H](N)CC(=O)O)C(=O)N[C@@H](Cc1c[nH]c2ccccc12)C(=O)N[C@@H](CO)C(N)=O [AE105, Asp^1-Cha^2-Phe^3-ser^4-arg^5-Tyr^6-Leu^7-Trp^8-Ser^9]
IC50 (human uPAR): 6.7 nM

CC(C)C[C@H](NC(=O)[C@H](Cc1ccc(O)cc1)NC(=O)[C@@H](CCCNC(=N)N)NC(=O)[C@@H](CO)NC(=O)[C@H](CCC(=O)O)NC(=O)[C@H](CC1CCCCC1)NC(=O)[C@H](CC(=O)O)NC(=O)CN1CCN(CC(=O)O)CCN(CC(=O)O)CCN(CC(=O)O)CC1)C(=O)N[C@@H](CCC(=O)O)C(=O)N[C@@H](CO)C(N)=O [DOTA-AE105mut, DOTA-Asp-Cha-Glu-(D)Ser-(D)Arg-Tyr-Leu-Glu-Ser-CONH2] (HELM PEPTIDE1{[O=C(O)CN1CCN(CC(=O)O)CCN(CC(=O)[*:2])CCN(CC(=O)O)CC1].D.[Cha].E.[dS].[dR].Y.L.E.S.[am]}$$$$V2.0)
IC50 (human uPAR): > 10 nM

CC(C)C[C@H](NC(=O)[C@H](Cc1ccc(O)cc1)NC(=O)C(CCCNC(=N)N)NC(=O)C(CO)NC(=O)C(Cc1ccccc1)NC(=O)[C@H](CC1CCCCC1)NC(=O)[C@H](CC(=O)O)NC(=O)CN1CCN(CC(=O)O)CCN(CC(=O)O)CCN(CC(=O)O)CC1)C(=O)N[C@@H](Cc1c[nH]c2ccccc12)C(=O)N[C@@H](CO)C(N)=O (stereo partly shown) [^177Lu-DOTA-AE105, metal not drawn]
premature deaths ([1]; HT-29 study): No animals died prematurely
Dosimetry Blood [2]: 4.9 mGy/MBq
Dosimetry Bone [2]: 1.8 mGy/MBq
Dosimetry Brain [2]: 0.4 mGy/MBq
Dosimetry Heart [2]: 2.0 mGy/MBq
Dosimetry Intestine [2]: 2.9 mGy/MBq
Dosimetry Kidney [2]: 52.9 mGy/MBq
Dosimetry Liver [2]: 2.4 mGy/MBq
Dosimetry Muscle [2]: 1.2 mGy/MBq
Dosimetry Spleen [2]: 5.5 mGy/MBq
Dosimetry Tumor [2]: 5.8 mGy/MBq
% ID/g Tumor (HT-29 tumor xenograft; female, NMRI nude, iv, 4 h): 0.176 % ID/g
clearance from blood and organs (HT-29 tumor xenograft): fast clearance rate from blood and all organs investigated
tissue to tissue ratio at 1 h ([3]; in vivo): 12
tissue to tissue ratio at 24 h ([3]; in vivo): 3.3
tissue uptake at 0.5 h ([3]; in vivo, % ID/g Blood): 2.71 %ID/g
tissue uptake at 1 h ([3]; in vivo, % ID/g Blood): 0.282 %ID/g
tissue uptake at 2 h ([3]; in vivo, % ID/g Blood): 0.173 %ID/g
tissue uptake at 4 h ([3]; in vivo, % ID/g Blood): 0.043 %ID/g
tissue uptake at 24 h ([3]; in vivo, % ID/g Blood): 0.005 %ID/g
tissue uptake at 0.5 h ([3]; in vivo, % ID/g Bone): 0.696 %ID/g
tissue uptake at 1 h ([3]; in vivo, % ID/g Bone): 0.699 %ID/g
tissue uptake at 2 h ([3]; in vivo, % ID/g Bone): 0.267 %ID/g
tissue uptake at 4 h ([3]; in vivo, % ID/g Bone): 0.258 %ID/g
tissue uptake at 24 h ([3]; in vivo, % ID/g Bone): 0.32 %ID/g
tissue uptake at 0.5 h ([3]; in vivo, % ID/g Brain): 0.075 %ID/g
tissue uptake at 1 h ([3]; in vivo, % ID/g Brain): 0.038 %ID/g
tissue uptake at 2 h ([3]; in vivo, % ID/g Brain): 0.026 %ID/g
tissue uptake at 4 h ([3]; in vivo, % ID/g Brain): 0.019 %ID/g
tissue uptake at 24 h ([3]; in vivo, % ID/g Brain): 0.005 %ID/g
tissue uptake at 0.5 h ([3]; in vivo, % ID/g Heart): 0.757 %ID/g
tissue uptake at 1 h ([3]; in vivo, % ID/g Heart): 0.143 %ID/g
tissue uptake at 2 h ([3]; in vivo, % ID/g Heart): 0.082 %ID/g
tissue uptake at 4 h ([3]; in vivo, % ID/g Heart): 0.05 %ID/g
tissue uptake at 24 h ([3]; in vivo, % ID/g Heart): 0.017 %ID/g
tissue uptake at 0.5 h ([3]; in vivo, % ID/g Intestine): 0.579 %ID/g
tissue uptake at 1 h ([3]; in vivo, % ID/g Intestine): 0.196 %ID/g
tissue uptake at 2 h ([3]; in vivo, % ID/g Intestine): 0.271 %ID/g
tissue uptake at 4 h ([3]; in vivo, % ID/g Intestine): 0.289 %ID/g
tissue uptake at 24 h ([3]; in vivo, % ID/g Intestine): 0.078 %ID/g
tissue uptake at 0.5 h ([3]; in vivo, % ID/g Liver): 0.686 %ID/g
tissue uptake at 1 h ([3]; in vivo, % ID/g Liver): 0.249 %ID/g
tissue uptake at 2 h ([3]; in vivo, % ID/g Liver): 0.243 %ID/g
tissue uptake at 4 h ([3]; in vivo, % ID/g Liver): 0.284 %ID/g
tissue uptake at 24 h ([3]; in vivo, % ID/g Liver): 0.149 %ID/g
tissue uptake at 0.5 h ([3]; in vivo, % ID/g Muscle): 0.58 %ID/g
tissue uptake at 1 h ([3]; in vivo, % ID/g Muscle): 0.084 %ID/g
tissue uptake at 2 h ([3]; in vivo, % ID/g Muscle): 0.047 %ID/g
tissue uptake at 4 h ([3]; in vivo, % ID/g Muscle): 0.053 %ID/g
tissue uptake at 24 h ([3]; in vivo, % ID/g Muscle): 0.01 %ID/g
tissue uptake at 0.5 h ([3]; in vivo, % ID/g Spleen): 0.924 %ID/g
tissue uptake at 1 h ([3]; in vivo, % ID/g Spleen): 0.262 %ID/g
tissue uptake at 2 h ([3]; in vivo, % ID/g Spleen): 0.222 %ID/g
tissue uptake at 4 h ([3]; in vivo, % ID/g Spleen): 0.303 %ID/g
tissue uptake at 24 h ([3]; in vivo, % ID/g Spleen): 0.109 %ID/g
tissue uptake at 0.5 h ([3]; in vivo, % ID/g Tumor): 1.78 %ID/g
tissue uptake at 1 h ([3]; in vivo, % ID/g Tumor): 0.614 %ID/g
tissue uptake at 2 h ([3]; in vivo, % ID/g Tumor): 0.17 %ID/g
tissue uptake at 4 h ([3]; in vivo, % ID/g Tumor): 0.17 ± 0.02 %ID/g
tissue uptake at 24 h ([3]; in vivo, % ID/g Tumor): 0.057 %ID/g
tissue uptake at 0.5 h ([3]; kidney, Kidney, 0.5 h after injection, read-out: % ID/g Kidney): 6.17 %ID/g
tissue uptake at 1 h ([3]; kidney, Kidney, 1.0 h after injection, read-out: % ID/g Kidney): 2.44 %ID/g
tissue uptake at 2 h ([3]; kidney, Kidney, 2.0 h after injection, read-out: % ID/g Kidney): 1.91 %ID/g
tissue uptake at 4 h ([3]; kidney, Kidney, 4.0 h after injection, read-out: % ID/g Kidney): 1.67 %ID/g
tissue uptake at 24 h ([3]; kidney, Kidney, 24 h after injection, read-out: % ID/g Kidney): 0.839 %ID/g

CC(C)C[C@H](NC(=O)[C@H](Cc1ccc(O)cc1)NC(=O)[C@@H](CCCNC(=N)N)NC(=O)[C@@H](CO)NC(=O)[C@H](CCC(=O)O)NC(=O)[C@H](CC1CCCCC1)NC(=O)[C@H](CC(=O)O)NC(=O)CN1CCN(CC(=O)O)CCN(CC(=O)O)CCN(CC(=O)O)CC1)C(=O)N[C@@H](CCC(=O)O)C(=O)N[C@@H](CO)C(N)=O [^177Lu-DOTA-AE105mut, metal not drawn, reference compound] (HELM PEPTIDE1{[O=C(O)CN1CCN(CC(=O)O)CCN(CC(=O)[*:2])CCN(CC(=O)O)CC1].D.[Cha].E.[dS].[dR].Y.L.E.S.[am]}$$$$V2.0)
animal body weight between treatment groups ([1]; mouse, in vivo): No significant differences in the mean body weights
kidney histopathology (H&E staining) ([1]; mouse, in vivo): no gross macroscopic morphological changes
tissue uptake at 0.5 h ([3]; in vivo, % ID/g Blood): 0.959 %ID/g
tissue uptake at 0.5 h ([3]; in vivo, % ID/g Bone): 0.39 %ID/g
tissue uptake at 0.5 h ([3]; in vivo, % ID/g Brain): 0.081 %ID/g
tissue uptake at 0.5 h ([3]; in vivo, % ID/g Heart): 0.278 %ID/g
tissue uptake at 0.5 h ([3]; in vivo, % ID/g Intestine): 0.2 %ID/g
tissue uptake at 0.5 h ([3]; in vivo, % ID/g Kidney): 3.01 %ID/g
tissue uptake at 0.5 h ([3]; in vivo, % ID/g Liver): 0.228 %ID/g
tissue uptake at 0.5 h ([3]; in vivo, % ID/g Muscle): 0.235 %ID/g
tissue uptake at 0.5 h ([3]; in vivo, % ID/g Spleen): 0.163 %ID/g
tissue uptake at 0.5 h ([3]; in vivo, % ID/g Tumor): 0.708 %ID/g

— patent US12589171B2, “177-Lu labeled peptide for site-specific uPAR-targeting” (priority 2012, dated 2026)
